Assay results: US20240059799A1 (Pfizer, published 2024)

Columns and labels:
recombinant human TL1A [1] = target: T1, recombinant human TL1A (human, UniProt O95150 71-251); assay: cell-based or functional assay
T1 chain: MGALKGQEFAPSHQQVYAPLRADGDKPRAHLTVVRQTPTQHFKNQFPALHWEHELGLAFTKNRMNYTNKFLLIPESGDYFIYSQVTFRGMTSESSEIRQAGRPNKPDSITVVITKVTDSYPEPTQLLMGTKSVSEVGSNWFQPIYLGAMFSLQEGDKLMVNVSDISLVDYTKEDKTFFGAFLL

recombinant human TL1A [2] = target: T1, recombinant human TL1A; assay: competition ELISA, coated TL1A, competitor bio-TL1A-0002
Method: (§1) For this competition ELISA assay procedure, 96-well high binding plates (Corning, product number 3590) were coated with 1 μg/mL recombinant TL1A in 100 μL/well in Phospate Buffered Saline (PBS) overnight at 4° C. Plates were then blocked in PBS+0.02% casein solution and washed with PBS+0.05% Tween-20 following standard ELISA protocol. […] Plates were washed with PBS+0.05% Tween-20 following standard ELISA protocol, and Streptavidin-HRP (Southern Biotech, product number 7100-05) diluted to 1:10,000 in assay buffer was added to plates and incubated for 25-30 minutes at room temperature. Next, the plates were washed with PBS+0.05% Tween-20 following standard ELISA protocol, and then TMB substrate (BioFX Laboratories, catalog number TMBW-0100-01) was added to plates. Reactions were stopped after approximately 5 minutes by adding 0.18 M ortho-phosphoric acid to each well and absorbance was read at 450 nm.

recombinant human TL1A [3] = target: T2, recombinant human TL1A (human, UniProt O95150 71-251); assay: competition ELISA vs bio-TL1A-0002
T2 construct: homotrimer; biotinylated for SPR capture; the ELISA paragraphs say only 'recombinant TL1A'; also called TNFSF15
T2 chain: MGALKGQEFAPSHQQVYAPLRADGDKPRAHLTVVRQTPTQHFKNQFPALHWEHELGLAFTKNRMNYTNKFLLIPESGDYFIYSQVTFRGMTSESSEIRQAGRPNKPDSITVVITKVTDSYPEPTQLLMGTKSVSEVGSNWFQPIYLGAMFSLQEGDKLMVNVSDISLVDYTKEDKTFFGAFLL
Method: as §1

Binder | Whole blood IFNγ assay IC50 (recombinant human TL1A [1]) | Whole blood IFNγ assay, Bioactivity relative to TL1A-0002 (recombinant human TL1A [1]) | Bioactivity relative to TL1A-0002 (recombinant human TL1A [2]) | IC50 (recombinant human TL1A [2]) | TF-1 NF-κB reporter cell bioassay IC50 (recombinant human TL1A [1]) | TF-1 NF-κB reporter cell bioassay, Bioactivity relative to TL1A-0002 (recombinant human TL1A [1]) | Bioactivity relative to TL1A-0002 (recombinant human TL1A [3]) | IC50 (recombinant human TL1A [3])
TL1A-0278 (antibody, human IgG1, kappa, V domains shown, human IgG1 effector-function-minimized/kappa) VH: QVQLVQSGAEVKKPGASVKVSCKASGYDFSYYGISWVRQAPGQGLEWMGWISTYNTVTHYAPSLQGRVTMTTDTSTSTAYMELRSLRSDDTAVYYCARESYYGSGAFRGGMDVWGQGTTVTVSS VL: DIQMTQSPSSLSASVGDRVTITCRASQSVSSYLAWYQQKPGKAPKLLIYDASNRATGVPSRFSGSGSGTDFTLTISSLQPEDFATYYCQQRSNWPWTFGQGTKVEIKR | 0.82 nM | 1 fold | 1.8 fold | 9.1 nM |  |  |  | 
TL1A-0291 (antibody, human IgG1, kappa, V domains shown, human IgG1 effector-function-minimized/kappa) VH: QVQLVQSGAEVKKPGASVKVSCKASGYDFTYYGVSWVRQAPGQGLEWMGWISTYNTGTHYAQKLQGRVTMTTDTSTSTAYMELRSLRSDDTAVYYCARESYYGSGAHRGGMDVWGQGTTVTVSS VL: DIQMTQSPSSLSASVGDRVTITCRASQSVSSYLAWYQQKPGKAPKLLIYDASNRATGVPSRFSGSGSGTDFTLTISSLQPEDFATYYCQQRSNWPWTFGQGTKVEIKR | 0.929 nM | 1.1 fold | 1.8 fold | 9 nM |  |  |  | 
TL1A-0308 (antibody, human IgG1, kappa, V domains shown, human IgG1 effector-function-minimized/kappa) VH: QVQLVQSGAEVKKPGASVKVSCKASGYDFTYYGIGWVRQAPGQGLEWMGWISTYNTNTHYAPSLQGRVTMTTDTSTSTAYMELRSLRSDDTAVYYCARESYYGSGAFRGGMDVWGQGTTVTVSS VL: DIQMTQSPSSLSASVGDRVTITCRASQSVSSYLAWYQQKPGKAPKLLIYDASNRATGVPSRFSGSGSGTDFTLTISSLQPEDFATYYCQQRSNWPWTFGQGTKVEIKR | 0.81 nM | 1 fold | 2.8 fold | 14.2 nM | 43 nM | 1.2 fold |  | 
TL1A-0043 (antibody, human IgG1, kappa, V domains shown, IgG1/kappa; VL graft on IGKV3D-7*01) VH: QVQLVQSGAEVKKPGASVKVSCKASGYDFTYYGISWVRQAPGQGLEWMGWISTYNGNTHYARMLQGRVTMTTDTSTRTAYMELRSLRSDDTAVYYCARENYYGSGAYRGGMDVWGQGTTVTVSS VL: EIVMTQSPATLSLSPGERATLSCRASQSVSSYLAWYQQKPGQAPRLLIYDASNRATGIPARFSGSGSGTDFTLTISSLQPEDFAVYYCQQRSNWPWTFGQGTKVEIKR |  |  |  |  |  |  | 0.9 fold | 3.9 nM
TL1A-0292 (antibody, human IgG1, kappa, V domains shown, human IgG1 effector-function-minimized/kappa) VH: QVQLVQSGAEVKKPGASVKVSCKASGYDFTYYGVSWVRQAPGQGLEWMGWISTYNTVTHYAPSLQGRVTMTTDTSTSTAYMELRSLRSDDTAVYYCARESYYGSGAFRGGMDVWGQGTTVTVSS VL: DIQMTQSPSSLSASVGDRVTITCRASQSVSSYLAWYQQKPGKAPKLLIYDASNRATGVPSRFSGSGSGTDFTLTISSLQPEDFATYYCQQRSNWPWTFGQGTKVEIKR | 0.95 nM | 1.1 fold | 1.9 fold | 9.6 nM | 77.9 nM | 2.2 fold |  | 
TL1A-0294 (antibody, human IgG1, kappa, V domains shown, human IgG1 effector-function-minimized/kappa) VH: QVQLVQSGAEVKKPGASVKVSCKASGYDFTYYGVSWVRQAPGQGLEWMGWISTYNTNTHYAPSLQGRVTMTTDTSTSTAYMELRSLRSDDTAVYYCARESYYGSGAFRGGMDVWGQGTTVTVSS VL: DIQMTQSPSSLSASVGDRVTITCRASQSVSSYLAWYQQKPGKAPKLLIYDASNRATGVPSRFSGSGSGTDFTLTISSLQPEDFATYYCQQRSNWPWTFGQGTKVEIKR | 0.942 nM | 1.1 fold | 1.6 fold | 8 nM | 56.5 nM | 1.6 fold |  | 
TL1A-0293 (antibody, human IgG1, kappa, V domains shown, human IgG1 effector-function-minimized/kappa) VH: QVQLVQSGAEVKKPGASVKVSCKASGYDFTYYGVSWVRQAPGQGLEWMGWISTYNTVTHYAPSLQGRVTMTTDTSTSTAYMELRSLRSDDTAVYYCARESYYGSGAHRGGMDVWGQGTTVTVSS VL: DIQMTQSPSSLSASVGDRVTITCRASQSVSSYLAWYQQKPGKAPKLLIYDASNRATGVPSRFSGSGSGTDFTLTISSLQPEDFATYYCQQRSNWPWTFGQGTKVEIKR | 0.986 nM | 1.2 fold | 1.9 fold | 9.7 nM |  |  |  | 
TL1A-0303 (antibody, human IgG1, kappa, V domains shown, human IgG1 effector-function-minimized/kappa) VH: QVQLVQSGAEVKKPGASVKVSCKASGYDFTYYGIGWVRQAPGQGLEWMGWISTYNTGTHYAPSLQGRVTMTTDTSTSTAYMELRSLRSDDTAVYYCARESYYGSGAHRGGMDVWGQGTTVTVSS VL: DIQMTQSPSSLSASVGDRVTITCRASQSVSSYLAWYQQKPGKAPKLLIYDASNRATGVPSRFSGSGSGTDFTLTISSLQPEDFATYYCQQRSNWPWTFGQGTKVEIKR | 1.23 nM | 1.5 fold | 3 fold | 15 nM | 49.4 nM | 1.4 fold |  | 
TL1A-0288 (antibody, human IgG1, kappa, V domains shown, human IgG1 effector-function-minimized/kappa; 96 used) VH: QVQLVQSGAEVKKPGASVKVSCKASGYDFTYYGVSWVRQAPGQGLEWMGWISTYNTGTHYAPSLQGRVTMTTDTSTSTAYMELRSLRSDDTAVYYCARESYYGSGAFRGGMDVWGQGTTVTVSS VL: DIQMTQSPSSLSASVGDRVTITCRASQSVSSYLAWYQQKPGKAPKLLIYDASNRATGVPSRFSGSGSGTDFTLTISSLQPEDFATYYCQQRSNWPWTFGQGTKVEIKR |  |  | 1.6 fold | 8 nM | 96 nM | 2.8 fold |  | 
TL1A-0287 (antibody, human IgG1, kappa, V domains shown, human IgG1 effector-function-minimized/kappa) VH: QVQLVQSGAEVKKPGASVKVSCKASGYDFTYYGVSWVRQAPGQGLEWMGWISTYNDNTHYAQKLQGRVTMTTDTSTSTAYMELRSLRSDDTAVYYCARESYYGSGAHRGGMDVWGQGTTVTVSS VL: DIQMTQSPSSLSASVGDRVTITCRASQSVSSYLAWYQQKPGKAPKLLIYDASNRATGVPSRFSGSGSGTDFTLTISSLQPEDFATYYCQQRSNWPWTFGQGTKVEIKR | 0.993 nM | 1.2 fold | 2 fold | 10.1 nM |  |  |  | 
TL1A-0285 (antibody, human IgG1, kappa, V domains shown, human IgG1 effector-function-minimized/kappa) VH: QVQLVQSGAEVKKPGASVKVSCKASGYDFTYYGVSWVRQAPGQGLEWMGWISTYNDNTHYAPSLQGRVTMTTDTSTSTAYMELRSLRSDDTAVYYCARESYYGSGAHRGGMDVWGQGTTVTVSS VL: DIQMTQSPSSLSASVGDRVTITCRASQSVSSYLAWYQQKPGKAPKLLIYDASNRATGVPSRFSGSGSGTDFTLTISSLQPEDFATYYCQQRSNWPWTFGQGTKVEIKR | 0.955 nM | 1.2 fold | 1.7 fold | 8.6 nM |  |  |  | 
TL1A-0280 (antibody, human IgG1, kappa, V domains shown, human IgG1 effector-function-minimized/kappa) VH: QVQLVQSGAEVKKPGASVKVSCKASGYDFSYYGISWVRQAPGQGLEWMGWISTYNTNTHYAPSLQGRVTMTTDTSTSTAYMELRSLRSDDTAVYYCARESYYGSGAFRGGMDVWGQGTTVTVSS VL: DIQMTQSPSSLSASVGDRVTITCRASQSVSSYLAWYQQKPGKAPKLLIYDASNRATGVPSRFSGSGSGTDFTLTISSLQPEDFATYYCQQRSNWPWTFGQGTKVEIKR | 0.914 nM | 1.1 fold | 1.6 fold | 8.2 nM |  |  |  | 
TL1A-0289 (antibody, human IgG1, kappa, V domains shown, human IgG1 effector-function-minimized/kappa) VH: QVQLVQSGAEVKKPGASVKVSCKASGYDFTYYGVSWVRQAPGQGLEWMGWISTYNTGTHYAPSLQGRVTMTTDTSTSTAYMELRSLRSDDTAVYYCARESYYGSGAHRGGMDVWGQGTTVTVSS VL: DIQMTQSPSSLSASVGDRVTITCRASQSVSSYLAWYQQKPGKAPKLLIYDASNRATGVPSRFSGSGSGTDFTLTISSLQPEDFATYYCQQRSNWPWTFGQGTKVEIKR | 0.799 nM | 1 fold | 1.6 fold | 7.9 nM |  |  |  | 
